Assay results from US9758785B2, “miR-520 microRNAs sensitize cancers to platinum-based therapy” (BAYLOR COLLEGE OF MEDICINE, priority 2012, dated 2017).

What was measured:
[1] = test system: UPSC Ark1 cells; experiment: Cisplatin dose response in uterine cancer cells stably transfected with lentiviral vector; format: cell-based; settings: UPSC Ark1 cells expressing miR-520h vs non-targeting miRNA control
Experimental: UPSC Ark1 cells stably transfected with lentiviral vector driving the expression of either miR-520h or a non-targeting miRNA control were incubated with increasing concentrations of cisplatin.

[2] = test system: OVCAR8 cells; experiment: Spheroid formation; format: cell-based, human; settings: cells stably expressing mimics
[3] = test system: OVCAR8 xenografts; experiment: Subcutaneous ovarian cancer xenograft; format: in vivo, mice; settings: subcutaneous inoculation vs non-targeting control or empty vector
[4] = test system: OVCAR8 xenografts; experiment: Survival and tumor response of xenografted mice treated with cisplatin; format: in vivo
Experimental: Permission to perform animal experiments was obtained from the Institutional Animal Care and Use Committee (IACUC) for Baylor College of Medicine. Eight-week female athymic (Foxn1^nu/nu) mice were purchased from the National Cancer Institute-Charles River and maintained on a standard diet ad lib. Each animal was inoculated intraperitoneally with 2.5×10^6 cells stably transfected with vector driving miR-520h, a non-targeting miRNA control or empty vector. Expression of miR-520h was measured in cell lines using Taqman assays immediately prior to inoculation. Tumor xenografts were followed weekly for tumor progression or regression using the Image Station In-Vivo FX system (Kodak Molecular Imaging Systems, New Haven, Conn.) using endogenous RFP encoded by the pLemiR vector as a tag. At each time point, mice were anesthetized with isoflurane and placed in an imaging chamber, after which, fluorescent intensity images with x-ray overlay were obtained and analyzed. At the completion of the study, mice were euthanized after sedation under isoflurane (Abbott Laboratories, North Chicago, Ill.). For experiments involving treatment, cisplatin was administered at 5 mg/kg to mice by tail vein injection weekly for 4 weeks, after which, 1.5 mg/kg was administered biweekly. Tumor volume and distribution for all animals in each experiment were documented and correlated with imaging results.
To determine whether expression of miR-520h impacted responses of ovarian cancer xenografts to systemically administered chemotherapy, the inventors inoculated Fox1nu/nu mice with 4×10^6 OVCAR8 cells stably expressing either miR-520h mimic, a non-targeting mimic control or empty vector. Once tumor implants were readily palpable, weekly administration of cisplatin equivalent to a dose of 5 mg/kg was initiated and given weekly for a total of 4 weeks. This course of treatment was specifically used to mimic the typical course experienced by women undergoing treatment for this illness. […] This observation is consistent with a sensitization of ovarian cancer cells to cisplatin by miR-520h mimic. Cisplatin was continued approximately biweekly at a reduced dose of 1.5 mg/kg until disease progression requiring euthanasia of animals by IACUC criteria. […] In contrast, median survival for animals xenografted with OVCAR8 cells stably transfected with empty vector or OVCAR8 cells stably expressing non-targeting microRNA control was 79 days and 90 days, respectively.

B1: hsa-mir-520h MI0003175 (nucleic acid, listed as Homo sapiens)
chain: UCCCAUGCUGUGACCCUCUAGAGGAAGCACUUUCUGUUUGUUGUCUGAGAAAAAACAAAGUGCUUCCCUUUAGAGUUACUGUUUGGGA
modifications: expressed or natural sequence
notes: synthetic mimic or stably expressed from pLemiR vector; written miR-520g/h interchangeably
[1]
  Reduction of IC50 for cisplatin: more than 90%
[2]
  Capacity to form spheroids: decreased capacity to form spheroids
[3]
  Implant size total tumor burden: significantly smaller
[4]; 4×10^6 OVCAR8 cells, cisplatin 5 mg/kg weekly 4 weeks then 1.5 mg/kg biweekly
  Mean survival: 114 days
[4]; biweekly maintenance IV regimen of 5 mg/m^2 cisplatin
  Mean survival: 130 days
[4]; cisplatin 5 mg/kg weekly for 4 weeks
  Xenograft response to cisplatin regimen: nearly complete elimination of disease
[4]; cisplatin-treated xenografted animals
  Increase in survival vs empty vector control: ~44%
[4]; mice xenografted with 2.5×10^6 OVCAR8 cells expressing the mimic, cisplatin doses, controls 90 and 79 days
  Median survival: 113 days
[4]; vs non-targeting mimic control or empty vector
  Implant size at necropsy: significantly smaller
